To fix the notation:
B1: Zinc finger homeobox protein 4, residues 2086 to 2141; numbered along this chain, Q86UP3 (parent)
chain: RPRTRITDDQLKILRAYFDINNSPSEEQIQEMAEKSGLSQKVIKHWFRNTLFKERQ

± gives the uncertainty stated by the source.

The data set covers variants of B1. In words: abundance fitness (aPCA) (normalised: wild type 0, dead -1); higher = more abundant; growth selection in yeast, the domain comes from the species named. The following applies: Homo sapiens.
As to RPRTRITDDQLKILRAYFDINNSPSEEQIQEMPEKSGLSQKVIKHWFRNTLFKERQ, the abundance fitness is -0.84 ± 0.19. The result for RPRTRITDDQLKILRAYFDINNSPSEEQIQEMSEKSGLSQKVIKHWFRNTLFKERQ reads -0.025 ± 0.11. Regarding RPRTRITDDQLKILRAYFDINNSPSEEQIQEMTEKSGLSQKVIKHWFRNTLFKERQ, the abundance fitness stood at 0.029 ± 0.1. The result for RPRTRITDDQLKILRAYFDINNSPSEEQIQEMFEKSGLSQKVIKHWFRNTLFKERQ reads -0.036 ± 0.11; that for RPRTRITDDQLKILRAYFDINNSPSEEQIQEMWEKSGLSQKVIKHWFRNTLFKERQ, -0.582 ± 0.42. The value for RPRTRITDDQLKILRAYFDINNSPSEEQIQEMYEKSGLSQKVIKHWFRNTLFKERQ was -0.531 ± 0.21; that for RPRTRITDDQLKILRAYFDINNSPSEEQIQEMGEKSGLSQKVIKHWFRNTLFKERQ was 0.056 ± 0.16.

As to RPRTRITDDQLKILRAYFDINNSPSEEQIQEMHEKSGLSQKVIKHWFRNTLFKERQ, the abundance fitness was found to be 0.191 ± 0.18. RPRTRITDDQLKILRAYFDINNSPSEEQIQEMVEKSGLSQKVIKHWFRNTLFKERQ: the abundance fitness is -0.169 ± 0.14. RPRTRITDDQLKILRAYFDINNSPSEEQIQEMCEKSGLSQKVIKHWFRNTLFKERQ: the abundance fitness turned out to be 0.181 ± 0.12. Turning to RPRTRITDDQLKILRAYFDINNSPSEEQIQEMIEKSGLSQKVIKHWFRNTLFKERQ, the abundance fitness turned out to be 0.038 ± 0.17. With RPRTRITDDQLKILRAYFDINNSPSEEQIQEMQEKSGLSQKVIKHWFRNTLFKERQ, the abundance fitness was 0.127 ± 0.27. Take RPRTRITDDQLKILRAYFDINNSPSEEQIQEMREKSGLSQKVIKHWFRNTLFKERQ: the abundance fitness stood at 0.05 ± 0.13. Take RPRTRITDDQLKILRAYFDINNSPSEEQIQEMKEKSGLSQKVIKHWFRNTLFKERQ: the abundance fitness is -0.126 ± 0.25.

As to RPRTRITDDQLKILRAYFDINNSPSEEQIQEMDEKSGLSQKVIKHWFRNTLFKERQ, the abundance fitness is -0.337 ± 0.14.

For RPRTRITDDQLKILRAYFDINNSPSEENIQEMAEKSGLSQKVIKHWFRNTLFKERQ, the abundance fitness is -0.329 ± 0.14. For the variant RPRTRITDDQLKILRAYFDINNSPSEEMIQEMAEKSGLSQKVIKHWFRNTLFKERQ, the abundance fitness was -0.153 ± 0.11.

Consider RPRTRITDDQLKILRAYFDINNSPSEEVIQEMAEKSGLSQKVIKHWFRNTLFKERQ, for which the abundance fitness is -0.033 ± 0.074. Take RPRTRITDDQLKILRAYFDINNSPSEESIQEMAEKSGLSQKVIKHWFRNTLFKERQ: the abundance fitness was -0.095 ± 0.077. The value for RPRTRITDDQLKILRAYFDINNSPSEEWIQEMAEKSGLSQKVIKHWFRNTLFKERQ was -0.38 ± 0.085; that for RPRTRITDDQLKILRAYFDINNSPSEEPIQEMAEKSGLSQKVIKHWFRNTLFKERQ was -0.533 ± 0.094; that for RPRTRITDDQLKILRAYFDINNSPSEEYIQEMAEKSGLSQKVIKHWFRNTLFKERQ was -0.236 ± 0.12.

Turning to RPRTRITDDQLKILRAYFDINNSPSEETIQEMAEKSGLSQKVIKHWFRNTLFKERQ, the abundance fitness is -0.034 ± 0.11.

Take RPRTRITDDQLKILRAYFDINNSPSEERIQEMAEKSGLSQKVIKHWFRNTLFKERQ: the abundance fitness amounted to 0.037 ± 0.065.

RPRTRITDDQLKILRAYFDINNSPSEELIQEMAEKSGLSQKVIKHWFRNTLFKERQ: the abundance fitness is -0.102 ± 0.077. For the variant RPRTRITDDQLKILRAYFDINNSPSEEQIQGMAEKSGLSQKVIKHWFRNTLFKERQ, the abundance fitness is -0.106 ± 0.07. The value for RPRTRITDDQLKILRAYFDINNSPSEEQIQCMAEKSGLSQKVIKHWFRNTLFKERQ was -0.141 ± 0.099. As for RPRTRITDDQLKILRAYFDINNSPSEEQIQWMAEKSGLSQKVIKHWFRNTLFKERQ, the abundance fitness is -0.26 ± 0.086. On to RPRTRITDDQLKILRAYFDINNSPSEEQIQFMAEKSGLSQKVIKHWFRNTLFKERQ, for which the abundance fitness was -0.191 ± 0.11. RPRTRITDDQLKILRAYFDINNSPSEEQIQAMAEKSGLSQKVIKHWFRNTLFKERQ: the abundance fitness was -0.104 ± 0.087. As for RPRTRITDDQLKILRAYFDINNSPSEEQIQNMAEKSGLSQKVIKHWFRNTLFKERQ, the abundance fitness is 0.011 ± 0.15.

For RPRTRITDDQLKILRAYFDINNSPSEEQIQIMAEKSGLSQKVIKHWFRNTLFKERQ, the abundance fitness was -0.09 ± 0.13.

Regarding RPRTRITDDQLKILRAYFDINNSPSEEQIQYMAEKSGLSQKVIKHWFRNTLFKERQ, the abundance fitness is -0.162 ± 0.14.

As to RPRTRITDDQLKILRAYFDINNSPSEEQIQLMAEKSGLSQKVIKHWFRNTLFKERQ, the abundance fitness was -0.089 ± 0.076. Turning to RPRTRITDDQLKILRAYFDINNSPSEEQIQTMAEKSGLSQKVIKHWFRNTLFKERQ, the abundance fitness is -0.182 ± 0.12. The result for RPRTRITDDQLKILRAYFDINNSPSEEQIQHMAEKSGLSQKVIKHWFRNTLFKERQ reads -0.109 ± 0.14; that for RPRTRITDDQLKILRAYFDINNSPSEEQIQPMAEKSGLSQKVIKHWFRNTLFKERQ, -0.316 ± 0.11. RPRTRITDDQLKILRAYFDINNSPSEEQIQRMAEKSGLSQKVIKHWFRNTLFKERQ: the abundance fitness is -0.007 ± 0.07. With RPRTRITDDQLKILRAYFDINNSPSEEQIQDMAEKSGLSQKVIKHWFRNTLFKERQ, the abundance fitness is -0.07 ± 0.1.

As to RPRTRITDDQLKILRAYFDINNSPSEEQIQQMAEKSGLSQKVIKHWFRNTLFKERQ, the abundance fitness is -0.005 ± 0.14.

In the case of RPRTRITDDQLKILRAYFDINNSPSEEQIQKMAEKSGLSQKVIKHWFRNTLFKERQ, the abundance fitness turned out to be 0.108 ± 0.12.

For RPRTRITDDQLKILRAYFDINNSPSEEQIQVMAEKSGLSQKVIKHWFRNTLFKERQ, the abundance fitness is -0.031 ± 0.075. Regarding RPRTRITDDQLKILRAYFDINNSPSEEQIQSMAEKSGLSQKVIKHWFRNTLFKERQ, the abundance fitness is -0.074 ± 0.074. Take RPRTRITDDQLKILRAYFDINNSPSEEQIQEMAAKSGLSQKVIKHWFRNTLFKERQ: the abundance fitness is -0.011 ± 0.084. Turning to RPRTRITDDQLKILRAYFDINNSPSEEQIQEMACKSGLSQKVIKHWFRNTLFKERQ, the abundance fitness is -0.429 ± 0.13. The result for RPRTRITDDQLKILRAYFDINNSPSEEQIQETAEKSGLSQKVIKHWFRNTLFKERQ reads -0.706 ± 0.14. As to RPRTRITDDQLKILRAYFDINNSPSEEQIQESAEKSGLSQKVIKHWFRNTLFKERQ, the abundance fitness is -0.564 ± 0.08.
